In US10919943B2, “Mutant proteins enabling agrochemical control of plant gene expression” (The Regents of the University of California, priority 2016, dated 2021):

Tested on: Arabidopsis
Assay: Overexpression of HAB1^!-2 (35S::GFP-HAB1^!-2) in Arabidopsis, T1 plant phenotype
Format: in vivo
Excerpt: To investigate the effects of overexpressing HAB1^!-2 in Arabidopsis, we used Agrobacterium mediated transformation to generate 35S::GFP-HAB1^!-2 transgenic plants. HAB1^!-2 was cloned from pACT-HAB1^!-2 into pEGAD, a binary vector suitable for plant transformation, generating a 35S-driven GFP-HAB1^!-2 fusion protein. The clone was transformed into Agrobacterium and the floral dip method used to transform Arabidopsis. After selection of T0 seed on soil containing glufosinate, several T1 seedlings were identified. […] As an alternate strategy, we eliminated HAB1's catalytic activity by introducing a mutation in a conserved metal-ion binding residue (D204), which is homologous to D131A mutation in ABI1, previously shown to eliminate phosphatase activity without disrupting wild type receptor-ABI1 interactions (Liang et al., 2011). We used QuickChange mutagenesis to introduce the D204A mutation into pACT-HAB1^!-2, generating pACT-HAB1^!-3. When tested for mandipropamid induced interactions with pBD-PYR1*^-MANDI, HAB1^!-3 is ˜10-fold less sensitive to mandipropamid relative to HAB1^!-2 (FIG. 5).

B1: HAB1^!-2: HAB1 double mutant V393R, R505A (protein)
chain: MTPAVAMTLSLAANTMCESSPVEITQLKNVTDAADLLSDSENQSFCNGGTECTMEDVSELEEVGEQDLLKTLSDTRSGSSNVFDEDDVLSVVEDNSAVISEGLLVVDAGSELSLSNTAMEIDNGRVLATAIIVGESSIEQVPTAEVLIAGVNQDTNTSEVVIRLPDENSNHLVKGRSVYELDCIPLWGTVSIQGNRSEMEDAFAVSPHFLKLPIKMLMGDHEGMSPSLTHLTGHFFGVYDGHGGHKVADYCRDRLHFALAEEIERIKDELCKRNTGEGRQVQWDKVFTSCFLTVDGEIEGKIGRAVVGSSDKVLEAVASETVGSTAVVALVCSSHIVVSNCGDSRAVLFRGKEAMPLSVDHKPDREDEYARIENAGGKVIQWQGARVFGRLAMSRSIGDRYLKPYVIPEPEVTFMPRSREDECLILASDGLWDVMNNQEVCEIARRRILMWHKKNGAPPLAERGKGIDPACQAAADYLSMLALQKGSKDNISIIVIDLKAQAKFKTRT
modifications: left off: small tags and cut ends
notes: HAB1 double mutant V393R, R505A
phenotype of T1 plants: symptoms of severe ABA insensitivity, including dwarf stature and high sensitivity to water deficit
